In patent US11827701B2, “IL-6 binding molecules” (argenx BV, priority 2012, dated 2023):
“And” between values parts separate entries of the source, which are not always exact repeats. Identical values can stand only once.

How the values were obtained:
[1] = target: biotinylated (prokaryotic) IL-6 (Homo sapiens, UniProt P05231); experiment: Surface plasmon resonance (Biacore), biotinylated IL-6 captured on streptavidin sensor chip; assay type: binding; conditions: purified Fab
Procedure: (§1) The binding kinetics of IL-6-specific Fabs that were able to cross-compete with the B-E8 antibody was assessed using surface plasmon resonance (Biacore). Specifically, biotinylated (prokaryotic) IL-6 was captured on a streptavidin biacore sensor chip (CM5-SA) and different concentrations of purified Fabs were injected during 3 minutes following by a 5 minute wash with buffer. From the washing phase the off-rate (kd) was determined, while from the injection phase the on-rate (ka) was calculated using the concentration and off-rate as parameters. […] The binding kinetics of antagonistic purified Fabs (Table 3) and periplasmic fractions of Fab-expressing bacteria (Table 4) were also evaluated by surface plasmon resonance (Biacore) using both bacterially and eukaryotically produced human IL-6 directly coated on a CM5 chip. The Fabs tested had off-rates between 6×10^−4 and 2×10^−5 s^−1.

[2] = target: T1, eukaryotically produced human IL-6 (Homo sapiens, UniProt P05231); experiment: Surface plasmon resonance (Biacore), eukaryotically produced human IL-6 coated on CM5 chip; assay type: binding; conditions: for KA / ka / kd: euk, periplasmic fractions
T1 construct: purchased Humanzyme HZ-1044; host or cells: Human Embryonic kidney cells
Procedure: as §1
(§2) VL chain shuffling was used to improve the affinity of the Fabs 17F10, 18C7, 18C9, 18C11, 20A4, 29B11, 16D2 and 28A6. In this method, the heavy chain of these clones (as a VHCH1 fragment) was reintroduced into the primary phagemid-light chain library (see Example 1). Affinity selections were performed to select for chain shuffled Fabs with an improved affinity for IL-6. The binding kinetics of chain shuffled Fabs were evaluated by surface plasmon resonance (Biacore) using both bacterially and eukaryotically produced human IL-6, and cynomolgus monkey IL-6 (Tables 5-7). The VH and VL amino acid sequences of exemplary IL-6-specific Fabs selected by the VL chain shuffling method are set forth in Table 14 below.
(§3) VH chain shuffling was also used to improve the affinity of the Fab 24D10. In this method, the light chain of 24D10 was reintroduced into the primary phagemid-heavy chain library (see Example 1) and selected using an off-rate assay. In this type of selection, the phage were allowed to bind to antigen on a substrate for 1.5 to 2 hours. At round 2, after 15 washes with PBS-Tween, an additional wash was performed with the presence of excess soluble IL-6. […] This procedure avoids re-binding of such phage to the coated target. […] The binding kinetics of chain shuffled Fabs and the benchmark antibodies, BE8 and GL18, were evaluated by surface plasmon resonance (Biacore) using both bacterially and eukaryotically produced human IL-6 (Tables 8 and 9). The VH and VL amino acid sequences of exemplary IL-6-specific Fabs selected by the VH chain shuffling method are set forth in Table 14 below. […]

[3] = target: T2, cynomolgus monkey IL-6 (Macaca fascicularis, UniProt P79341); experiment: Surface plasmon resonance (Biacore), cynomolgus monkey IL-6; assay type: binding; conditions: for KA / ka / kd: cy/cyno, periplasmic fractions
T2 construct: His
Procedure: as §2

[4] = target: T3, bacterially produced human IL-6 (Homo sapiens, UniProt P05231); experiment: Surface plasmon resonance (Biacore), bacterially produced human IL-6 coated on CM5 chip; assay type: binding; conditions: for KA / ka / kd: bact, periplasmic fractions
T3 construct: His
Procedure: as §1, §2, §3

[5] = target: T4, human IL-6 (Homo sapiens, UniProt P05231); experiment: IL-6 neutralizing bioassay, 7TD1 cell proliferation; assay type: cell-based; conditions: relative to 68F2
T4 construct: host or cells: IL-6 added from outside to murine 7TD1 hybridoma cells
Procedure: The in vitro efficacy of clones 133E5, 133A9, 133H2, 111B1, 104C1, 129D3, 68F2, 61H7, were also determined using a cell-based neutralizing bioassay using the 7TD1 cell line, essentially as described in Van Snick et al. PNAS; 83, :9679 (1986), which is hereby incorporated by reference in its entirety. 7TD1 cells are a murine hybridoma cell line formed by fusion of the mouse myeloma cell line Sp2/0-Ag14 with spleen cells from a C57BL/6 mouse immunized with Escherichia coli lipopolysaccharides three days before fusion. The 7TD1 cell line is dependent on IL-6 for its growth and IL-6 withdrawal leads to cell death by apoptosis.
Briefly, 7TD1 cells (7.10E3) were incubated for 2-4 h in RPMI1640 medium+10% FCS before addition of IL-6 (75 pg/ml final concentration) in microtiter plates (200 ul final volume). The cells were incubated 3 days at 37C, before washing with PBS and addition of 60 ul of substrate solution (p-nitrophenyl-N-acetyl-β-D-glucosaminide (Sigma N-9376); 7.5 mM substrate in 0.05 M NaCitrate pH 5; 0.25 vol % triton X-100) for 4 h. The enzymatic reaction was stopped with 90 ul of stop solution (100 mM glycine+10 mM EDTA pH 10.4) and OD at 405 nm measured.
The VH and VL of the germlined versions of 68F2 were recloned in pUPE Heavy Chain and Light Chain expression vectors, respectively, for transient expression of full-length IgG1 antibodies. After transient expression in HEK293E cells, IgG1 antibodies were purified with protein A and quantified by measurement of OD280. Table 19 below summarizes the production levels of the germlined derivatives together with the levels of the 68F2 parental antibody. Potencies (in pM) were also measured in a 7TD1 based proliferation assay for each antibody.

T2 sequence (P79341 28-212): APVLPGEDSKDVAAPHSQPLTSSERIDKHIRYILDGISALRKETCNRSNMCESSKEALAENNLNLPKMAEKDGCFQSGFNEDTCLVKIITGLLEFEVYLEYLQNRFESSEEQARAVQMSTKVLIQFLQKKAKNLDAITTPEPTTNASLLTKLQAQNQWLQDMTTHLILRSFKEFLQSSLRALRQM
T3 sequence (P05231 30-212): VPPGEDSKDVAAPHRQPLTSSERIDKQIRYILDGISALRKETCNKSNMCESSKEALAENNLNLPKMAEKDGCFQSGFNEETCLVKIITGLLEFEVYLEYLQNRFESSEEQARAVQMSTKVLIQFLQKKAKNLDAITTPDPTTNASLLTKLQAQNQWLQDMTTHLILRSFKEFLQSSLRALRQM
T4 sequence (P05231 30-212): as above
T1 sequence (P05231 30-212): as above
Sequence of biotinylated (prokaryotic) IL-6 (P05231 30-212): as above

| KA ([2]; 28A6 chain-shuffled) [M⁻¹] | ka ([2]; 28A6 chain-shuffled) [M⁻¹ s⁻¹] | kd ([2]; 28A6 chain-shuffled) [s⁻¹] | KA ([3]; 28A6 chain-shuffled) [M⁻¹] | ka ([3]; 28A6 chain-shuffled) [M⁻¹ s⁻¹] | kd ([3]; 28A6 chain-shuffled) [s⁻¹] | KA ([4]; 28A6 chain-shuffled) [M⁻¹] | ka ([4]; 28A6 chain-shuffled) [M⁻¹ s⁻¹] | kd ([4]; 28A6 chain-shuffled) [s⁻¹] | Molecule | Rel. Potency ([5]; Exp 22.06 (7TD1)) | further results |
| --- | --- | --- | --- | --- | --- | --- | --- | --- | --- | --- | --- |
| 3.1e+09 | 201000 | 6.47e-05 | 3.2e+09 | 285000 | 8.9e-05 | 3.29e+09 | 228000 | 6.94e-05 | 55C11f: 28A6 chain-shuffled Fab, periplasmic fraction (antibody, V domains shown) VH: QVQLVESGGGLVQPGGSLRLSCAASGFTFSNYYMTWVRQAPGKGLEWVSSIYSFSGDTAYADSVKGRFTISRDNAKNTLYLQMNSLKSEDTAVYYCTRNLGGVVVTTNGYDYWGQGTQVTVSS VL: DIQLTQSPSSLSASLGDSVTITCQASQSISDELSWYQQKPGQTPKLLIYGASKLQTGVPSRFSGSGSGTSFTLTISGLEAEDLATYYCLQGYRWPFMFGQGTKVELK | – | – |
| 2.62e+09 | 146000 | 5.59e-05 | 2.1e+09 | 145000 | 6.88e-05 | 3.18e+09 | 193000 | 6.09e-05 | 55E10g1: 28A6 chain-shuffled Fab, periplasmic fraction (antibody, V domains shown) VH: QVQLVESGGGLVQPGGSLRLSCAASGFTFSNYYMTWVRQAPGKGLEWVSSIYSFSGDTAYADSVKGRFTISRDNAKNTLYLQMNSLKSEDTAVYYCTRNLGGVVVTTNGYDYWGQGTQVTVSS VL: DIQMTQSPSSLPTSLGDSVTITCQASQSISDELSWYQQKPGQTPKLLIYGASKLQTGVPSRFSGSGSGTSFTLTISGLEAEDLATYYCLQGYSWPFMFGQGTKVELK | – | – |
| 1.56e+09 | 106000 | 6.8e-05 | 1.18e+09 | 112000 | 9.46e-05 | 2.93e+09 | 206000 | 7.04e-05 | 48H1g2, R4: 28A6 chain-shuffled Fab, periplasmic fraction (antibody, V domains shown) VH: QVQLVESGGGLVQPGGSLRLSCAASGFTFSNYYMTWVRQAPGKGLEWVSSIYSFSGDTAYADSVKGRFTISRDNAKNTLYLQMNSLKSEDTAVYYCTRNLGGVVVTTNGYDYWGQGTQVTVSS VL: DVVMTQSPSSLPTSLGDSVTITCQASQSISDELSWYQQKPGQTPKLLIYGASKLQTGVPSRFSGSGSGTSFTLTISGLEAEDLATYYCLQGYSWPFMFGQGTKVELK | – | – |

The remaining lines, values behind:

| Molecule | KA ([2]; 28A6 chain-shuffled) [M⁻¹] | ka ([2]; 28A6 chain-shuffled) [M⁻¹ s⁻¹] | kd ([2]; 28A6 chain-shuffled) [s⁻¹] | KA ([3]; 28A6 chain-shuffled) [M⁻¹] | ka ([3]; 28A6 chain-shuffled) [M⁻¹ s⁻¹] | kd ([3]; 28A6 chain-shuffled) [s⁻¹] | KA ([4]; 28A6 chain-shuffled) [M⁻¹] | ka ([4]; 28A6 chain-shuffled) [M⁻¹ s⁻¹] | kd ([4]; 28A6 chain-shuffled) [s⁻¹] | Rel. Potency ([5]; Exp 22.06 (7TD1)) | further results |
| --- | --- | --- | --- | --- | --- | --- | --- | --- | --- | --- | --- |
| 18C7: antagonistic IL-6-specific Fab clone from immunized llama (antibody, listed as Lama glama, V domains shown) VH: EVQLVESGPGLVKPSQTLSLTCTVSGGSITASFDAWSWIRQPPGKGLEWMGVIAYDGSTYYSPSLKSRTSISRDTSKNQFSLQLSSVTPEDTAVYYCARKSSWLIGYGMDYWGKGTLVTVSS VL: QAGLTQPSALSVTLGQTAKITCQGGSLGSSYAHWYQQKPGQAPVLVIYDDDSRPSGIPERFSGSSSGGRATLTISGAQAEDEGDYYCQSADSSGNAAVFGGGTHLTVLG | – | – | – | – | – | – | – | – | – | – | KA [1]: 5.7e+07 M⁻¹; Rmax [1]: 43.9 RU; ka [1]: 105000 M⁻¹ s⁻¹; kd [1]: 0.00185 s⁻¹; Koff eukIL-6 ([2]; purified chain-shuffled Fabs): 0.001 s⁻¹ and 0.00082 s⁻¹; Koff HIS-cyIL-6 ([3]; purified chain-shuffled Fabs): 0.00063 s⁻¹ and 0.00069 s⁻¹; Koff HIS-huIL-6 ([4]; purified chain-shuffled Fabs): 0.0011 s⁻¹ |
| 29B11: antagonistic IL-6-specific Fab clone from immunized llama (antibody, listed as Lama glama, V domains shown) VH: EVQLVESGGGLVQPGGSLRLSCAASGFTFSSYAMSWVRQAPGKGLEWVSRISSGGISTYYADSVKGRFTISRDNAKNTLYLQMNSLKPEDTAVYYCVRYAWGVQWAFDFWGQGTQVTVSS VL: QSVLTQPPSVSGSPGQTVTISCAGTSEDVGYGNYVSWYQQLPGMAPKLLIYDVNKRASGIADRFSGSKSGNTASLTISGLQSEDEADYYCASYRRTIDNIFGGGTHLTVLG | – | – | – | – | – | – | – | – | – | – | KA [1]: 4.36e+07 M⁻¹; Rmax [1]: 23.3 RU; ka [1]: 130000 M⁻¹ s⁻¹; kd [1]: 0.00298 s⁻¹; KA ([2]; 29B11 chain shuffled): 1.83e+09 M⁻¹; ka ([2]; 29B11 chain shuffled): 187000 M⁻¹ s⁻¹; kd ([2]; 29B11 chain shuffled): 0.000102 s⁻¹; KA ([3]; 29B11 chain shuffled): 1.51e+08 M⁻¹; ka ([3]; 29B11 chain shuffled): 113000 M⁻¹ s⁻¹; kd ([3]; 29B11 chain shuffled): 0.000746 s⁻¹; KA ([4]; 29B11 chain shuffled): 1.91e+09 M⁻¹; ka ([4]; 29B11 chain shuffled): 251000 M⁻¹ s⁻¹; kd ([4]; 29B11 chain shuffled): 0.000131 s⁻¹ |
| 129D3 (17.06) (antibody, V domains shown) VH: EVQLQESGPGLVKPSQTLSLTCTVSGGSITSRYYAWSWIRQPPGKGLEWIGVIDYDGDTYYSPSLKSRVSISWDTSKNQFSLKLSSVTPADTAVYYCARDPDVVTGFHYDYWGQGTMVTVSS VL: QSALTQPPSVSGTPGQSVTISCAGANNDIGTYAYVSWYQQLPGTAPKLMIYKVTTRASGIPDRFSGSKSGNTASLTISGLQAEDEADYYCASYRNFNNAVFGTGTKLTVL | – | – | – | – | – | – | – | – | – | 1.02 | – |
| 127E2 (24.06) (antibody, V domains shown) VH: EVQLQESGPGLVKPSQTLSLTCTVSGGSITTRYYAWSWIRQPPGKGLEWIGVIDYDGDTYYSPSLKSRVTISVDTSKNQFSLQLSSVTAEDTAVYYCARDPDVVTGFHYDYWGQGTQVTVSS VL: QSALTQPPSVSGSPGQTVTISCAGANNDIGTYAYVSWYQQPPGTAPKLLIYKVTTRASGVPDRFSGSKSGNTASLTISGLQAEDEADYYCASYRNFNNAVFGGGTHLTVL | – | – | – | – | – | – | – | – | – | 0.58 | – |
| 128G3 (17.06) (antibody, V domains shown) VH: EVQLQESGPGLVKPSQTLSLTCTVSGGSITTRYYAWSWIRQPPGKGLEWIGVIDYDGDTYYSPSLKSRTTISVDTSKNQFSLKLSSVTPEDTAVYYCARDPDVVTGFHYDYWGQGTMVTVSS VL: QSALTQPPSVSGAPGQTVTISCAGANNDIGTYAYVSWYQQLPGTAPKLLIYKVTTRASGVPDRFSGSKSGNTASLAISGLQAEDEADYYCASYRNFNNAVFGGGTHLTVL | – | – | – | – | – | – | – | – | – | 0.60 | Rel. Potency ([5]; Exp 29.06 (7TD1)): 0.52 |
| 127E2 (17.06) (antibody, V domains shown) VH: EVQLQESGPGLVKPSQTLSLTCTVSGGSITTRYYAWSWIRQPPGKGLEWIGVIDYDGDTYYSPSLKSRVTISVDTSKNQFSLQLSSVTAEDTAVYYCARDPDVVTGFHYDYWGQGTQVTVSS VL: QSALTQPPSVSGSPGQTVTISCAGANNDIGTYAYVSWYQQPPGTAPKLLIYKVTTRASGVPDRFSGSKSGNTASLTISGLQAEDEADYYCASYRNFNNAVFGGGTHLTVL | – | – | – | – | – | – | – | – | – | – | Rel. Potency ([5]; Exp 29.06 (7TD1)): 0.37 |
